Measurements reported in patent US20240361328A1.

Tests used:
[1] = molecular target: anti-CD19 CAR (clone FMC63), second-generation, C-terminal meGFP (human) (UniProt P01732); assay: magnetic selection with APC-labeled multimer and anti-APC magnetic particles, 'Mid Clone'
[2] = molecular target: anti-CD19 CAR (clone FMC63), second-generation, C-terminal meGFP (human) (UniProt P01732); assay: flow cytometry staining titration, anti-CD19 CAR-transduced Jurkat cells
[3] = molecular target: anti-CD19 CAR (clone FMC63), second-generation, C-terminal meGFP (human) (UniProt P01732); assay: flow cytometry staining titration, dose-response fit
[4] = molecular target: anti-CD19 CAR (clone FMC63), second-generation, C-terminal meGFP (human) (UniProt P01732); assay: flow cytometry specificity staining, matched CAR cells
[5] = molecular target: anti-CD19 CAR (clone FMC63), second-generation, C-terminal meGFP (human) (UniProt P01732); assay: magnetic selection with APC-labeled multimer and anti-APC magnetic particles, 'Low Clone'
[6] = molecular target: anti-CD19 CAR (clone FMC63), second-generation, C-terminal meGFP (human) (UniProt P01732); assay: cell-based or functional assay
[7] = molecular target: anti-CD19 CAR (clone FMC63), second-generation, C-terminal meGFP (human) (UniProt P01732); assay: flow cytometry staining titration, αCD19-CAR-transduced Jurkat cells
[8] = molecular target: anti-CD19 CAR (clone FMC63), second-generation, C-terminal meGFP (human) (UniProt P01732); assay: flow cytometry staining titration, CAR-transduced Jurkat cells
[9] = molecular target: anti-CD19 CAR (clone FMC63), second-generation, C-terminal meGFP (human) (UniProt P01732); assay: flow cytometry spike-in assay, 'Low Clone' and 'Mid Clone' anti-CD19 CAR-meGFP cells among mCherry non-CAR cells
[10] = molecular target: anti-CD19 CAR (clone FMC63), second-generation, C-terminal meGFP (human) (UniProt P01732); assay: flow cytometry spike-in assay, 'Mid Clone' at 10%

Substance | percent of CAR+ cells retained in the column [1] [%] | efficiency of detection against antigen-monomer [2] [% higher] | fold staining efficiency (1/EC50) against anti FMC63 antibody [3] [fold] | percent of CAR-expressing cells detected [4] [%] | percent of CAR+ cells retained in the column [5] [%] | CAR-T cells as percent of total cell population (49% without multimer) [6] [%] | CD69+CD25+ cells in CD4+ CAR-T cell sub-population (17% without multimer) [6] [%] | CD69+CD25+ cells in CD8+ CAR-T cell sub-population (5% without multimer) [6] [%] | PD-1+ CAR-T cells in CD4+ CAR-T cell sub-population (25% without multimer) [6] [%] | PD-1+ CAR-T cells in CD8+ CAR-T cell sub-population (2% without multimer) [6] [%] | percent of CD19 CAR-expressing cells detected at saturated concentrations [7] [%] | percent of target cells detected at the maximum concentration [8] [%] | sensitivity [9] [%] | percent of cells detected [10] [%]
CD19 antigen-dodecamer (from UniProt P22629 37-163) | 55 | 25 | 40 | > 90 | 35 | 70 | 28 | 38 | 25 | 6 | 90 | > 92 | > 90 | 
CD19 antigen-streptavidin tetramer (from UniProt P22629 37-163) | 55 | 25 | 8 | > 90 | 35 | 61 | 26 | 28 | 26 | 6 | 93 | > 92 | > 90 | 
Protein L (Thermo Fisher Scientific, 29997) |  |  |  |  |  |  |  |  |  |  |  |  |  | 90
